In the DeepSol protein solubility set:

Assay: soluble on expression in E. coli; label from the status in PepcDB or PDB records

Sequence | soluble on expression in E. coli
MDIKIAQESFPILVAENIYHCGYHSEKSYGAASYLIQHSQGNILVDSPRFTPPLVKRIEAMGGIKYMYLTHQDDVADHQKFAEHFQCQRILHTDEISAGTRNVEIQLTGLEPFPLQPDVLIIPVPGHTKGHTVLLYKNKFLFTGDHLAWSENRHQLTAFRDVCWYSWAEQIKSMRRLADYSFDWVLPGHGRRFHADVETMRQQMHKCIELMTDERQPLTFNSLEHHHHHH | not soluble
MGSDKIHHHHHHMTGKLPKACVIGAGCSGFTTIKRLKDYGIPYDCFEMSDEVGGNWYYKNPNGLSACYESLHIDTSKWRLAFEDFPVPKDWPDFPHHAQLFQYFKDYVDHFGLRPTITFNTKVESAKRTADGLWAVTLSGGETQFYDVLFVCNGHHWDPRVPEYPGEFDGPAFHAHAYCDPFDPVDMRGKNVVVVGMGNSAMDIASELSQRPIAKNLWVSARRGVWVFPKYLNGKPADKTALPAWMPRKLGVALSRSVLKKTIGRMEDYGLPKPDHEPLEAHPSVSGEFLTRAGCGDIKFKPAIKALEGKRVRFTDDSVEDVDAIVFATGYKISFPFFDDPALLPDADHRLPLFKRMMKPEVPNLFYMGLAQPLPTLVNFAEQQAKLAAAYLAGQYALPPPAEMARITAKDEHRHTGHFYDSARHTIQVDFNVYCADLKKEIAKGEARARNAGGKLPVAARAEGQALAAE | not soluble
MAHHHHHHMLSIRKCNIYDLLSMQQCNSINLPENYNLRYYFYHALSWPYLSQIAEDVNGKVCGYSLGKLEEDNEYKGHLTSVAVLKTYRKLKLAFYLILQTHQHLKDIYRANNICLHVRVSNNAALNLYYNLLNYKVNGIETQYYGNKENAYLMEHVFAR | not soluble
MHHHHMITLENPDIKYPLRLIDKEILSHDTRRFRFALPSPQHILGLPIGQHIYLSTRIDGNLVIRPYTPVSSDDDKGFVDLVVKVYFKETHPKFPAGGKMPQYLENMNIGDTIEFRGPNGLLVYQGKGKFAIRADKKSNPVVRTVKSVGMIAGGTGITPMLQVIRAVLKDPNDHTVCYLLFANQSEKDILLRPELEELRNEHSSRFKLWYTVDKAPDAWDYSQGFVNEEMIRDHLPPPGEETLILMCGPPPMIQFACLPNLERVGHPKERCFTF | soluble
MKKVILFMAGILASMMLNAQSRWSVTPEAGLVVNKENEGTSVTLGFKAGAGVLYQLKEGVGKKPSFGLKSGVYILMQKGGYHPMSWGNISTGGGFSMDYEKTNVESTRYYLQLPVMAHWGFKLCDDVRLKLAVGPYVAVGIGGRTNAYVSSSKYNIDEETGVGQYEYRNDYYRFGTFKGKTVNEEFGFEASPRLDWGGTASVGIAVKRISFTVGYDLAWGKYNKEQNDLRIRNHMVSFTSGYSF | not soluble
MMRSHVITHFSMPNIDLHSHSTISDGMLSPSRLLAHAAVRGVNVLALTDHDDIAGLSEASRSAQQENITLIRGVEISVTWHGRTLHILGLGINPEHPPLTEGLKKIRDGRMDRARAIAAQLDKFGIHGSFEGASAQAGISRLIGRTHFARFLVSQGYAKNVKSVFKKYLVKGKPGHVSHVWVSLDEAIGWIRGSGGQAVIAHPARYKLSNDLLEQLLCEFRELGGAGIEVVSSSHTPEQTRQFAALATRMNLYASCGSDYHGPGESYFDLGRLPALPPECTPIWNEWEIPDYAETGATTLNEQSEQTGLQSPGKSV | not soluble
MGSDKIHHHHHHMRIVVSGGGTGGHIYPALAMIREIERRTPCEVLYIGTENGLEADIVRRAGIPFESIEISGIRRSLSFENVKTGFRFLKSVVRVRKLLRDFQPDIVVGTGGFVCGPVLYTAAKMGYKTLVHEQNSLPGITNKFLARYVDRVALSFKGSGHHFGKNKGKTILIGNPRASEVAMLQIDPVEEKRKYGFEQDRPLIVVYGGSRGAPAINKAVVDMIPKLTETDWSLLFVTGQVHYEDIQAQLGTLPDRIQLRPFIYDLPLILKASQLVISRSGASTLAELTTLGLPSILIPSPYVTENHQEVNASSLVETGASLLIRESELTGDRLFDACTKAIADQADMSKASLALGMPNAASDLVDELLRLIQRKN | not soluble
MVKVTIIIPTYNPREHLIDTLLSVRTQNFTNIEVLIVDDGSTVDVSTLIKPYITADNIRCIRRKNGGTAAARNTGITNSTGEYIAFLDHDDIWLPDKVALQVEALDRNLSCGLTYCNFQILDEQTGSLINPHRQGEGGCMFEKFLYRNYITTASQIMVRRSCFDQLGLFDESLPIVDDYDFYLRLSRCYDIHYDPRVLTHWRSHQFNTSKNYEKTQLGRIKVKETALNRWALSDNQKKILFKGLRRDYYELAYYYLNSEKYSDARNYFRKAVPYRPVKSIVYYLSTCVPGLSYLNMKALKNDFLKLEHHHHHH | not soluble
